From paper PMC2612750, “Identification of Pax6-Dependent Gene Regulatory Networks in the Mouse Lens” come the findings set out here.

The target in one data set is Pax6 GST-PD/HD (UniProt P63015 4-269). Briefly: EMSA; EMSA: 0.5-1 ng 5'-end-labelled probe, 2 ug poly(dI-dC), room temperature 10 min, 5% PAGE in 0.5x TBE; competitor 50 ng cold P6CON (~50:1); binding buffer, salt. The settings on record: protein: recombinant; tags: GST; label: 5'-end label (radioactive).
The target in a further data set is Pax6 GST-PD (UniProt P63015 4-130). The description is as above. The settings on record: protein: recombinant; tags: GST; label: 5'-end label (radioactive).
Chain of Pax6 GST-PD (P63015 4-130): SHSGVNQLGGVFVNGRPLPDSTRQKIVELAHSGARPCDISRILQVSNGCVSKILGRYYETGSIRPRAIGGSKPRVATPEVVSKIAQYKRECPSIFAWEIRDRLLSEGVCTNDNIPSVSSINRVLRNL

Chain of Pax6 GST-PD/HD (P63015 4-269): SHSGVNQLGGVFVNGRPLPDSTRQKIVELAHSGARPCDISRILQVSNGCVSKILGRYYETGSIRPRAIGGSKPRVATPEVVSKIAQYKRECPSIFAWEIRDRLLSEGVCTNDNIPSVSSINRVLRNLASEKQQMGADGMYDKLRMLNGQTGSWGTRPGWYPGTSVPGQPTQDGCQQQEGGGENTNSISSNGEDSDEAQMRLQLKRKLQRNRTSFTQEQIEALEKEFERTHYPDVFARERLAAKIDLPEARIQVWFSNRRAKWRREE

B1: P6CON (dsDNA)
DNA 1: GGATGCAATTTCACGCATGAGTGCCTCGAGGGATCCACGTCGA
DNA 2: TCGACGTGGATCCCTCGAGGCACTCATGCGTGAAATTGCATCC
As for B1, the binding result in the data set with Pax6 GST-PD/HD and with Pax6 GST-PD was “binds” in each case.
